In patent US20030087316A1, “Diagnostic markers of liver dysfunction” (priority 2001, published 2003):
Entries after “also recorded” stand apart in the source; their conditions may differ.

Assays:
[1] = target: T1, plasmin (Homo sapiens, UniProt P00747); assay: Peptidase (amidolytic) activity of purified plasmin, chromogenic substrate, OD 405 nm; format: biochemical; details: Table 2
T1 construct: purchased Calbiochem-Novabiochem Corp (La Jolla, Calif.)
Description: (§1) The peptidase activity in plasma samples or of the purified enzymes were routinely determined at 37° C. in a 96-well plate. Each well contained 0.5 mM substrate in 100 μl of Tris-buffered saline (TBS)-EDTA buffer (50 mM Tris/150 mM NaCl/10 mM EDTA, pH 7.8) and the reaction was monitored using a microplate reader (Titertek Multiscan, Labsystems, Needham Heights, Mass.).
(§2) The enzymes C1s (100 nM), plasm in (100 nM), thrombin (100 nM), plasma kallikrein (20 nM), β-FXIIa (100 nM), trypsin (16 nM) or LTR EDTA plasma samples were incubated for 60 min at 4° C. with TBS-EDTA buffer containing either LBTI (1 mg/ml), SBTI (I mg/ml), aprotinin (0.075 mg/ml), benzamidine (50 mM), or Futhan (0.1 mg/ml), before mixing with the substrate. EDTA plasma samples from LTR were diluted 10 or 20-fold with TBS-EDTA. The chromogenic substrate AGLTR-pNA was used for all enzymes and LTR samples except C1s where the substrate S2288 was used. Based on the initial rate of increase in OD at 405 nm, the residual free enzyme level was calculated and expressed as a percentage of total activity without inhibitor added.
(§3) Ten-fold diluted normal EDTA plasma was added to each enzyme. The enzymes C1s (100 nM), plasmin (100 nM), thrombin (100 nM), plasma kallikrein (20 nM), β-FXIIa (100 nM), trypsin (16 nM) or LTR EDTA plasma samples were incubated for 60 min at 4° C. with TBS-EDTA buffer containing either C1INH (40 μg/ml), bdellin (50 μg/ml), hirudin (50 U/ml), PPACK 11(10 μM), or CTI (100 μg/ml), before adding the substrate. LTR samples were 10 or 20-fold diluted with TBS-EDTA. The chromogenic substrate AGLTR-pNA was used for all enzymes and LTP samples except C1s where the substrate S2288 was used. Based on the initial rate of increase in OD at 405 nm, the residual free enzyme was calculated and expressed as a percentage of total activity determined without inhibitor added.

[2] = target: T2, thrombin (Homo sapiens, UniProt P00734); assay: Peptidase (amidolytic) activity of purified thrombin, chromogenic substrate, OD 405 nm; format: biochemical
T2 construct: purchased Calbiochem-Novabiochem Corp (La Jolla, Calif.)

[3] = tested on: trypsin; assay: Peptidase (amidolytic) activity of purified trypsin, chromogenic substrate, OD 405 nm; format: biochemical; details: Table 2
Description: as §1, §2

[4] = tested on: proteinase(s) in EDTA plasma from LTR (kallikrein-like peptidase); assay: Peptidase activity in EDTA plasma from liver transplant recipients (LTR), chromogenic substrate, OD 405 nm; format: biochemical, human; details: for % Residual activity, LTR 1 / % Residual activity, LTR 2 / % Residual activity, LTR 3: substrate AGLTR-pNA; for Inhibition of the LTR plasma peptidase activity, in words: text on Tables 2 and 3, concentrations as there
Description: Blood samples were drawn into 5 ml EDTA tubes (Venoject; Terumo Corp., Elkton, Md.). The plasma was collected immediately by centrifugation at 2,000×g for 15 min at 4° C. The plasma samples were either processed immediately for analysis or stored at −70° C. Frozen samples were thawed at 4° C. prior to analysis.
as §1, §2, §3

[5] = target: T3, β-Factor XIIa (β-FXIIa) (Homo sapiens, UniProt P00748); assay: Peptidase (amidolytic) activity of purified β-FXIIa, chromogenic substrate, OD 405 nm; format: biochemical; details: Table 2; β-FXIIa 100 nM, substrate AGLTR-pNA; 60 min at 4° C. with LBTI 1 mg/ml, SBTI I mg/ml, aprotinin 0.075 mg/ml, benzamidine 50 mM or Futhan 0.1 mg/ml
T3 construct: β-Factor XIIa (β-FXIIa) was kindly provided by Dr. Mary J. Heeb; gift of Dr. Mary J. Heeb, The Scripps Research Institute
T3 sequence (P00748 373-615 limits assumed, other chains not shown): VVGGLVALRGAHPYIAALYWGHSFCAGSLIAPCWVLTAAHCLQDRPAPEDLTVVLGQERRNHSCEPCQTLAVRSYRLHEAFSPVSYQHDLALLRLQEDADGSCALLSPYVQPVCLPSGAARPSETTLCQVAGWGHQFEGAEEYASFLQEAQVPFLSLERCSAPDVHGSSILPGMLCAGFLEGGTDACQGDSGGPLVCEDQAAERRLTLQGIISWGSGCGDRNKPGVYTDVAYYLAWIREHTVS
Description: as §1
(§4) […] EDTA plasma samples from LTR were diluted 10 or 20-fold with TBS-EDTA. The chromogenic substrate AGLTR-pNA was used for all enzymes and LTR samples except C1s where the substrate S2288 was used. Based on the initial rate of increase in OD at 405 nm, the residual free enzyme level was calculated and expressed as a percentage of total activity without inhibitor added.
(§5) Ten-fold diluted normal EDTA plasma was added to each enzyme. […] LTR samples were 10 or 20-fold diluted with TBS-EDTA. The chromogenic substrate AGLTR-pNA was used for all enzymes and LTP samples except C1s where the substrate S2288 was used. Based on the initial rate of increase in OD at 405 nm, the residual free enzyme was calculated and expressed as a percentage of total activity determined without inhibitor added.

[6] = target: T4, C1s (Homo sapiens, UniProt P09871); assay: Peptidase (amidolytic) activity of purified C1s, chromogenic substrate, 96-well plate, OD 405 nm; format: biochemical
T4 construct: purchased Advanced Research Technologies (San Diego, Calif.)
T4 sequence (P09871 438-688 limits assumed): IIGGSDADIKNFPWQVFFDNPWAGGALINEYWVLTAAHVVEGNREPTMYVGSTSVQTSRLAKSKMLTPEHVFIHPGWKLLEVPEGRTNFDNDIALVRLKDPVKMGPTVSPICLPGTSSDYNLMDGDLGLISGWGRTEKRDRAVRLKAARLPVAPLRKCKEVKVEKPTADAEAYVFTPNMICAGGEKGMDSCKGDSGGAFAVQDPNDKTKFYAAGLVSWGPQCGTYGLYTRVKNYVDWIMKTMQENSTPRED
T4 sequence (P09871 16-437 partner limits assumed): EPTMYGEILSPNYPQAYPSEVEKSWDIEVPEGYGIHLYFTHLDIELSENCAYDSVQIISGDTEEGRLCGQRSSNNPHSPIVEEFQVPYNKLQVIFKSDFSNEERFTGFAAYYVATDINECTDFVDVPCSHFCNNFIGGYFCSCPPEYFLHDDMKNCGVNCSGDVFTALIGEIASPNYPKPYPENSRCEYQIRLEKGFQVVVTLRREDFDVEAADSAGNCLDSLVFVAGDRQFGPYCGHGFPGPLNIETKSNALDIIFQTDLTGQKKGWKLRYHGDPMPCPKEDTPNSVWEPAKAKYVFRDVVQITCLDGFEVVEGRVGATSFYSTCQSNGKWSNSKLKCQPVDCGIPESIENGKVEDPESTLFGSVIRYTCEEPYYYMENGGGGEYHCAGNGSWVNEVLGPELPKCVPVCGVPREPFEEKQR
Description: as §1, §2, §3

[7] = target: T5, plasma kallikrein (Homo sapiens, UniProt P03952); assay: Peptidase (amidolytic) activity of purified plasma kallikrein, chromogenic substrate, OD 405 nm; format: biochemical
T5 construct: The light chain of kallikrein contains the enzymatic domain; purchased Calbiochem-Novabiochem Corp (La Jolla, Calif.)
T5 sequence (P03952 391-638 limits assumed): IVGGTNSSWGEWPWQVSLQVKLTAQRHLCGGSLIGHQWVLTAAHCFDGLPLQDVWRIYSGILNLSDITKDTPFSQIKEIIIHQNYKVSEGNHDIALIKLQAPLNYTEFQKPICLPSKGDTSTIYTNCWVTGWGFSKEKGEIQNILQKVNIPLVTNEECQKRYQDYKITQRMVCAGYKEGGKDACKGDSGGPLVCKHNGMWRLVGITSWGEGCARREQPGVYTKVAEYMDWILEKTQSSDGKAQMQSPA
T5 sequence (P03952 20-390 partner limits assumed): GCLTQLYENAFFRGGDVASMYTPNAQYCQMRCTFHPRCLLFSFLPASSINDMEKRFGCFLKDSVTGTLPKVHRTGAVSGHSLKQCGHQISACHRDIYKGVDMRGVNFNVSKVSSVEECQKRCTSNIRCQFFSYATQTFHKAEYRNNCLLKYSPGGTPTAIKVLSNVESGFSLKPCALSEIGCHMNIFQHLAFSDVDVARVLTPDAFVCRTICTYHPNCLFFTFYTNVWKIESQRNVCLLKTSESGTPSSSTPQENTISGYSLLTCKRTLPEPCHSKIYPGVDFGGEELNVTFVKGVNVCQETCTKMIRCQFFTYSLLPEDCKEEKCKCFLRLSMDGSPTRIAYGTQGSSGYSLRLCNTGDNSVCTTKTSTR
Description: as §1, §4, §5

[8] = text on Tables 2 and 3, concentrations as there

T1 sequence (P00747 581-810 limits assumed, species assumed): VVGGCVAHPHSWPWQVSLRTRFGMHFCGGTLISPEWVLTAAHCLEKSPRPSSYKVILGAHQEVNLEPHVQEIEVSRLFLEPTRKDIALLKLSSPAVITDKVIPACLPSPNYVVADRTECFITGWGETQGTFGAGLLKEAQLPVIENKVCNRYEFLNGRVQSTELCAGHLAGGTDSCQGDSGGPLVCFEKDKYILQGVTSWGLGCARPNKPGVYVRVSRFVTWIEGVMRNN
T1 sequence (P00747 97-580 partner limits assumed, species assumed): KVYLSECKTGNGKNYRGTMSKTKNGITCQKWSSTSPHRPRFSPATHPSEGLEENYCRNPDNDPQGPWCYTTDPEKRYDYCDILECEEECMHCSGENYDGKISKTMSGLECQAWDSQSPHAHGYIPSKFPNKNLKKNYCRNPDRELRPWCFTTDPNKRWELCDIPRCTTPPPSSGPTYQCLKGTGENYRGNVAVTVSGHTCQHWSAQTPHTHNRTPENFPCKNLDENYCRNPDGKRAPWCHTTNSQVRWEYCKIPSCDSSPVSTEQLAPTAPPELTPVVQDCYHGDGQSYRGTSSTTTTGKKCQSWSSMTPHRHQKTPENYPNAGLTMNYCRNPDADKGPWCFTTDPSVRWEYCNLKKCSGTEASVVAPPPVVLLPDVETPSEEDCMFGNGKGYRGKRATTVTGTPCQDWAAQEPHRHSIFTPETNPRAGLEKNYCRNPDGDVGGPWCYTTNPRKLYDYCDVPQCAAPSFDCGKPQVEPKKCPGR

Row | Inhibition of plasmin amidolytic activity, in words ([1]; concentrations as there) | Inhibition of trypsin amidolytic activity, in words ([3]; concentrations as there) | Inhibition of C1s, in words [6, 8] | % Residual activity, Plasma Kallikrein ([7]; Table 2, plasma kallikrein 20 nM, substrate AGLTR-pNA, 60 min at 4° C. with LBTI 1 mg/ml, SBTI I mg/ml, aprotinin 0.075 mg/ml, benzamidine 50 mM or Futhan 0.1 mg/ml) [%] | Inhibition of purified plasma kallikrein activity, in words [7, 8] | Inhibition of thrombin by hirudin (FIG. 8), in words ([2]; 50 U/ml hirudin, substrate AGLTR-pNA, versus time at 37° C.) | Inhibition of thrombin, in words ([2]; Table 3) | Substance | % Residual activity, Plasmin ([1]; plasmin 100 nM, substrate AGLTR-pNA, 60 min at 4° C. with LBTI 1 mg/ml, SBTI I mg/ml, aprotinin 0.075 mg/ml, benzamidine 50 mM or Futhan 0.1 mg/ml) [%] | % Residual activity, Thrombin ([2]; Table 2, thrombin 100 nM, substrate AGLTR-pNA, 60 min at 4° C. with LBTI 1 mg/ml, SBTI I mg/ml, aprotinin 0.075 mg/ml, benzamidine 50 mM or Futhan 0.1 mg/ml) [%] | % Residual activity, Trypsin ([3]; trypsin 16 nM, substrate AGLTR-pNA, 60 min at 4° C. with LBTI 1 mg/ml, SBTI I mg/ml, aprotinin 0.075 mg/ml, benzamidine 50 mM or Futhan 0.1 mg/ml) [%] | % Residual activity, LTR 1 ([4]; Table 2, LTR 1 EDTA plasma diluted 10 or 20-fold, 60 min at 4° C. with LBTI 1 mg/ml, SBTI I mg/ml, aprotinin 0.075 mg/ml, benzamidine 50 mM or Futhan 0.1 mg/ml) [%] | % Residual activity, LTR 2 ([4]; Table 2, LTR 2 EDTA plasma diluted 10 or 20-fold, 60 min at 4° C. with LBTI 1 mg/ml, SBTI I mg/ml, aprotinin 0.075 mg/ml, benzamidine 50 mM or Futhan 0.1 mg/ml) [%] | % Residual activity, LTR 3 ([4]; Table 2, LTR 3 EDTA plasma diluted 10 or 20-fold, 60 min at 4° C. with LBTI 1 mg/ml, SBTI I mg/ml, aprotinin 0.075 mg/ml, benzamidine 50 mM or Futhan 0.1 mg/ml) [%] | Inhibition of the LTR plasma peptidase activity, in words [4] | % Residual activity, β-FXIIa [5] [%] | % Residual activity, C1s ([6]; Table 2, C1s 100 nM, substrate S2288, 60 min at 4° C. with LBTI 1 mg/ml, SBTI I mg/ml, aprotinin 0.075 mg/ml, benzamidine 50 mM or Futhan 0.1 mg/ml, % of total activity without inhibitor) [%] | % Residual activity, Thrombin ([2]; Table 3, thrombin 100 nM with ten-fold diluted normal EDTA plasma added, substrate AGLTR-pNA, 60 min at 4° C. with hirudin 50 U/ml or PPACK 11 10 μM) [%] | % Residual activity, LTR 1 ([4]; Table 3, LTR 1 EDTA plasma 10 or 20-fold diluted, 60 min at 4° C. with C1INH 40 μg/ml, bdellin 50 μg/ml, hirudin 50 U/ml, PPACK 11 10 μM or CTI 100 μg/ml) [%] | % Residual activity, LTR 2 ([4]; Table 3, LTR 2 EDTA plasma 10 or 20-fold diluted, 60 min at 4° C. with C1INH 40 μg/ml, bdellin 50 μg/ml, hirudin 50 U/ml, PPACK 11 10 μM or CTI 100 μg/ml) [%] | % Residual activity, LTR 3 ([4]; Table 3, LTR 3 EDTA plasma 10 or 20-fold diluted, 60 min at 4° C. with C1INH 40 μg/ml, bdellin 50 μg/ml, hirudin 50 U/ml, PPACK 11 10 μM or CTI 100 μg/ml) [%]
1 | efficiently inhibited | efficiently inhibited | but not C1s | 3.5 | efficiently inhibited |  |  | aprotinin | 2.4 | 84.6 | 4.8 | 35.3 | 40.2 | 21.4 | only partially effective | 106.0 | 104.8 |  |  |  | 
2 |  |  |  |  |  | effectively inhibited | a very effective thrombin inhibitor | Hirudin |  |  |  |  |  |  | failed to reduce the plasma peptidase activity; also recorded: not inhibited |  |  | 2.6 | 100.4 | 99.5 | 104.1
